Laboratory results published in patent US20170157251A1 (MacroGenics, published 2017).

How the values were obtained:
[1] = target: T1, soluble human CD19-biotin (human, UniProt P15391 20-291, limits assumed, biotin (site not stated)); experiment: bifunctional (bispecific) ELISA: plate coated with soluble human CD3ε/δ, DART titrated, detected with soluble human CD19-biotin
T1 construct: Detection antigen of the bifunctional ELISA
T1 sequence (looked up): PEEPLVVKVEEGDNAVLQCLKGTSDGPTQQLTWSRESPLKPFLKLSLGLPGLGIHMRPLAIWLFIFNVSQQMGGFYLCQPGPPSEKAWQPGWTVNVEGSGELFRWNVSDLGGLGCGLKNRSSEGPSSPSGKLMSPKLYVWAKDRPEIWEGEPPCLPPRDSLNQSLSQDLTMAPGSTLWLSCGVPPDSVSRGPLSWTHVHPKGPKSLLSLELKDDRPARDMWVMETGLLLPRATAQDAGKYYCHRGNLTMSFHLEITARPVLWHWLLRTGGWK

[2] = target: T2, human CD19 on cells (human, UniProt P15391 20-556); experiment: flow cytometry on human blood leukocytes, CD20+ gate (B cells); detection with biotinylated anti-E-coil/K-coil mAb and streptavidin-PE
T2 construct: whole, on cells; also called CD19 on human CD20+ B cells; CD19 on Raji/GF, HBL-2, Jeko-1 cells
T2 sequence (looked up): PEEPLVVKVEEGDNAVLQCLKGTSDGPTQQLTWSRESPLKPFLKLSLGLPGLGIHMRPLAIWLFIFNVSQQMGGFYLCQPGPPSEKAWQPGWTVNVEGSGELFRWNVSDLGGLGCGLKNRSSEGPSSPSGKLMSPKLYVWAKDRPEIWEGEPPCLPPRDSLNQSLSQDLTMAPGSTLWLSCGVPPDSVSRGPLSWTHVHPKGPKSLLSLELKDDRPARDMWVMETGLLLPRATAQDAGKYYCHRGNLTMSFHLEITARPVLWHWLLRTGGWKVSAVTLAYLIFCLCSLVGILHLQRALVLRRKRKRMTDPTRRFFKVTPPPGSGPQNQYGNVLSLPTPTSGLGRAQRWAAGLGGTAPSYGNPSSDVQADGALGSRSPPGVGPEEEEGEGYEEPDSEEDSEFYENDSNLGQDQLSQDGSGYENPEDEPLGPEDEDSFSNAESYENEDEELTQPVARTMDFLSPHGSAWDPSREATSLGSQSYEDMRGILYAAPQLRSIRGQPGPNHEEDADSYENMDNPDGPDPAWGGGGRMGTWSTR

[3] = target: T3, human CD3 on T cells (human, UniProt P07766 23-207; P04234 22-171); experiment: flow cytometry on human blood leukocytes, CD4+ and CD8+ gate (T cells); detection with biotinylated anti-E-coil/K-coil mAb and streptavidin-PE
T3 construct: also called CD3 on human CD4+ and CD8+ T cells; copies: 1 + 1

[4] = target: T4, cynomolgus monkey CD3 on T cells (cynomolgus monkey, UniProt Q95LI5 22-198; Q95LI8 22-171); experiment: flow cytometry on cynomolgus monkey blood leukocytes, CD4+ and CD8+ gate (T cells); detection with biotinylated anti-E-coil/K-coil mAb and streptavidin-PE
T4 construct: T cells were gated as CD4+ and CD8+; also called CD3 on cynomolgus monkey CD4+ and CD8+ T cells
T4 sequence (Q95LI5 22-198 limits assumed, chain 1 of 2): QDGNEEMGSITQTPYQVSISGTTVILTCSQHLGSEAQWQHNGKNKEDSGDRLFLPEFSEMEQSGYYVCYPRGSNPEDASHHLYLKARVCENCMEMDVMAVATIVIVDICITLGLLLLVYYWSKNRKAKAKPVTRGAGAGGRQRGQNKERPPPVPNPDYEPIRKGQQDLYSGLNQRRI
T4 sequence (Q95LI8 22-171 limits assumed, chain 2 of 2): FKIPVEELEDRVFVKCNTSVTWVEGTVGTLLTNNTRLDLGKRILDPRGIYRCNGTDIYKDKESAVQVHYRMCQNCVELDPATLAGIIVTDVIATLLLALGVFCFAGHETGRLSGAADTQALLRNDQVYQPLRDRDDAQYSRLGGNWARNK

T3 sequence (P07766 23-207 limits assumed, chain 1 of 2): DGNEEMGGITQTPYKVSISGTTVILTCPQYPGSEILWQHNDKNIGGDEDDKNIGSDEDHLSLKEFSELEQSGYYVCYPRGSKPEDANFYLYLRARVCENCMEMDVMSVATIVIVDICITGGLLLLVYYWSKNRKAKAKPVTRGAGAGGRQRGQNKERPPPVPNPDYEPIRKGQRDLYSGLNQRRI
T3 sequence (P04234 22-171 limits assumed, chain 2 of 2): as the sequence (Q95LI8 22-171 limits assumed, chain 2 of 2) above, with V5I, K15N, V20I, T32S, N33D, N34I, A64T, N74S, L83V, R141H counted along it

B1: Control DART 1 (Fluorescein×CD3) (bispecific antibody)
chain 1: DVVMTQTPFSLPVSLGDQASISCRSSQSLVHSNGNTYLRWYLQKPGQSPKVLIYKVSNRFSGVPDRFSGSGSGTDFTLKISRVEAEDLGVYFCSQSTHVPWTFGGGTKLEIKGGGSGGGGEVQLVESGGGLVQPGGSLRLSCAASGFTFSTYAMNWVRQAPGKGLEWVGRIRSKYNNYATYYADSVKGRFTISRDDSKNSLYLQMNSLKTEDTAVYYCVRHGNFGNSYVSWFAYWGQGTLVTVSSASTKGEVAACEKEVAALEKEVAALEKEVAALEKGGGDKTHTCPPCPAPEAAGGPSVFLFPPKPKDTLMISRTPEVTCVVVDVSHEDPEVKFNWYVDGVEVHNAKTKPREEQYNSTYRVVSVLTVLHQDWLNGKEYKCKVSNKALPAPIEKTISKAKGQPREPQVYTLPPSREEMTKNQVSLWCLVKGFYPSDIAVEWESNGQPENNYKTTPPVLDSDGSFFLYSKLTVDKSRWQQGNVFSCSVMHEALHNHYTQKSLSLSPGK
chain 2: QAVVTQEPSLTVSPGGTVTLTCRSSTGAVTTSNYANWVQQKPGQAPRGLIGGTNKRAPWTPARFSGSLLGGKAALTITGAQAEDEADYYCALWYSNLWVFGGGTKLTVLGGGGSGGGGEVKLDETGGGLVQPGRPMKLSCVASGFTFSDYWMNWVRQSPEKGLEWVAQIRNKPYNYETYYSDSVKGRFTISRDDSKSSVYLQMNNLRVEDMGIYYCTGSYYGMDYWGQGTSVTVSSASTKGKVAACKEKVAALKEKVAALKEKVAALKE
chain 3: not shown
notes: other arm is anti-fluorescein 4-4-20
Q: Which results are given for B1?
A: binding result [1]: no binding (tested: about 5 µg/ml); binding result [2]: no binding (tested: about 80 nM); binding result [3]: binds; binding result [4]: binds
